Experimental data taken from patent US20250073350A1 (BROAD INSTITUTE, published 2025).

Target: the molecule itself
Assay: self-association; size exclusion and electron microscopy of protein produced in E. coli

B1: MmPNMA5, bacterially produced (other, mouse, UniProt Q5DTT8 1-618, looked up)
chain: MAVALLDDWCKGMDLDPKKAVLIVGIPVQYTEAAINDALKEGLPPLCAYKVIGRMFRREDEAKAVLIELPEVVDYTMMPTHIPAEGGAWEVVVKPRSPDDEFMNKLIYFLRDEGRRIVDVAKALGFSTVPTGKIELKNLDQDKPKGLKSLCNNSTCYKKLKVFSGSPFPGPGEESFETWLEEVTELMQLWQVSEREKKQCLLESLRGSALSIMQALWTSNDSLTVEQCLKALKHIFGNKEDSKVLQFRFLQSSQKPAEKVSDYLLRLEPLLQKAVQQSPLSAHSADSIRLKHVLSQVSMTTGLRGKLSLLDQQGCPPTFLELMKLTRDEEEWESTVVVEEQEQVRRDSSACEAANEVVTQAEDSREVSTQTTGEEMTSVKRRRLLWRHSAGEEGQRKESGFWAESEPDEQKPYVRAQESGNERGAWAVSHPNPKEIEAQDSQEFLPVAGNRDTLTKSWGSPDKGTGDMSVAEGQQGQGKAPNFLLARNDPNKQEQIPHSSVTTKWQDRGECQRLKWGASMITRPQGNPDRSWDTSGSQDGEDGCSELRMPTGTEAAQGVEEPATGLSWAEDTSAWEQARLGRETVPRRGGRRIQPVFRIIYTALGEPHEGSTLESFRE
notes: also called paraneoplastic antigen-like protein 5
- binding result: binds

B2: MmMOAP1, bacterially produced (other, mouse, UniProt Q9ERH6 1-352, looked up)
chain: MTLRLLEDWCRGMDMNPRKALLVAGIPPTCGVADIEEALQAGLAPLGEHRLLGRMFRRDENKNVALIGLTVETGSALVPKEIPAKGGVWRVIFKPPDTDSDFLCRLNEFLKGEGMTMGELTRVLGNRNDPLGLDPGIMIPEIRAPMLAQALNEALKPTLQYLRYKKLSVFSGRDPPGPGEEEFESWMFHTSQVMKTWQVSDVEKRRRLIESLRGPAFEIIRVLKINNPFITVAECLKTLETIFGIIDNPRALQVKYLTTYQKTDEKLSAYVLRLEPLLQKLVQKGAIEKEVVNQARLDQVIAGAVHKSVRRELGLPEGSPAPGLLQLLTLIKDKEAEEEEVLLQAELEGYCT
notes: also called modulator of apoptosis 1
- binding result: binds
